Experimental data reported in patent US20220040234A1 (JUVENTAS CELL THERAPY, published 2022).

Target: T1, CD19 on the CD19-positive human leukemia cell line Nalm-6 (human, UniProt P15391 20-556)
T1 sequence (looked up): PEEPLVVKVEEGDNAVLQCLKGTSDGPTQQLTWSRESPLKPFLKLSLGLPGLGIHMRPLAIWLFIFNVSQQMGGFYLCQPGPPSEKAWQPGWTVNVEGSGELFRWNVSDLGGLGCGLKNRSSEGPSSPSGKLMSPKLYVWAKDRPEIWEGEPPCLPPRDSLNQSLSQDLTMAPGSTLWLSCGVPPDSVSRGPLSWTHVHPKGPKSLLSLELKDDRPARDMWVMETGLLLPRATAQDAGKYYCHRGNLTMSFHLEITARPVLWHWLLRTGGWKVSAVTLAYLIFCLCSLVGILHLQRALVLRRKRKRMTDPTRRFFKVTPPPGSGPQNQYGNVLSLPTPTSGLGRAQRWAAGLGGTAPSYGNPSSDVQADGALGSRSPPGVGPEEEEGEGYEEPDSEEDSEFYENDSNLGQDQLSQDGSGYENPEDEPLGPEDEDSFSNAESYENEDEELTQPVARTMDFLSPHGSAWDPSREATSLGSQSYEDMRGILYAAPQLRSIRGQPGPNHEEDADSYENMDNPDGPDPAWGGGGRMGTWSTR
Assay: cell-based or functional assay

IL-6 secreted by CNCT19 cells after 24 h co-culture with Nalm-6 target cells, effector/target ratio 2:1: 32.2 pg/mL
INF-γ secreted by CNCT19 cells after 24 h co-culture with Nalm-6 target cells, effector/target ratio 2:1: 6190 pg/mL
residual rate of target cells (Nalm-6) after 24 h co-culture with CNCT19 cells, effector/target ratio 1:2, flow cytometry: 2.8%
residual rate of target cells (Nalm-6) after 24 h co-culture with CNCT19 cells, effector/target ratio 2:1, flow cytometry: 1.1%
B1: CD19-targeted chimeric antigen receptor (CAR) of SEQ ID NO. 1, expressed on the surface of CNCT19 cells (other)
chain: GSDIVLTQSPKFMSTSVGDRVSVTCKASQNVGTNVAWYQQKPGQSPKPLIYSATYRNSGVPDRFTGSGSGTDFTLTITNVQSKDLADYFCQQYNRYPYTSGGGTKLEIKRGGGGSGGGGSGGGGSQVQLQQSGAELVRPGSSVKISCKASGYAFSSYWMNWVKQRPGQGLEWIGQIYPGDGDTNYNGKFKGQATLTADKSSSTAYMQLSGLTSEDSAVYFCARKTISSVVDFYFDYWGQGTTLTVSSEFTTTPAPRPPTPAPTIASQPLSLRPEACRPAAGGAVHTRGLDFACDIYIWAPLAGTCGVLLLSLVITLYCKRGRKKLLYIFKQPFMRPVQTTQEEDGCSCRFPEEEEGGCELRVKFSRSADAPAYQQGQNQLYNELNLGRREEYDVLDKRRGRDPEMGGKPRRKNPQEGLYNELQKDKMAEAYSEIGMKGERRRGKGHDGLYQGLSTATKDTYDALHMQALPPR
